Experiment: soluble on expression in E. coli; label from the status in PepcDB or PDB records

Sequence | soluble on expression in E. coli
MGSDKIHHHHHHMKMHVAFVHRRGFGQFAALARHLAEAGNEVTLVTETVDQRIPSVRVVRHRAEPGPQPNPHIARHLGVPDHHVRIGHRVAETFDAMGRLGQSPDIVLGHIGWGSMMFVKDVLPRVPALGYCEFFYRSEGADVGFAPDDRPDSETRKRLRLRNIAQLLSLEAMDGGISPTNWQKSLYPADARQRIAVCHEGVDTRRFRPDPAASLKLPDGRVLKAGDPVVTFVARDLEPYRGFPQALEAAAKVVRRHPDALFVFVGGDGVSYGAPPPGGGSWKDHLLASLDVPRERLIFPGVVPHSVLRQLFQISAAHLYLTYPFVLSWSVLEAMACGALVIGSDTAPVQEVIRSGRNGLLVPFFDTDALAETIVGALNRPDNFRELRGAARRTVEQRFRLDDCLARQLTLIGNLTGRNAAQAKETQFV | not soluble
MKKIYKVLYPVGFQIFEVQDDYVVALPFVEEKPLENLVNEQSQFFNFSEQKWEEAVTQDYTKKLNLLENLANGLEVSNSELKQANEKLTAKAESLAQINSKTMLTSLQNTREIDAIKEQIGGAK | not soluble
MIGILKKVFDVNQRQIKRMQKTVEQIDALESSIKPLTDEQLKGKTLEFKERLTKGETVDDLLPEAFAVVREAATRVLGMRPYGVQLMGGIALHEGNISEMKTGEGKTLTSTLPVYLNALTGKGVHVVTVNEYLAQRDANEMGQLHEFLGLTVGINLNSMSREEKQEAYAADITYSTNNELGFDYLRDNMVLYKEQCVQRPLHFAIIDEVDSILVDEARTPLIISGQAQKSTELYMFANAFVRTLENEKDYSFDVKTKNVMLTEDGITKAEKAFHIENLFDLKHVALLHHINQALRAHVVMHRDTDYVVQEGEIVIVDQFTGRLMKGRRYSEGLHQAIEAKEGVEIQNESMTLATITFQNYFRMYEKLSGMTGTAKTEEEEFRNIYNMNVIVIPTNKPIIRDDRADLIFKSMKGKFNAVVEDIVNRHKQGQPVLVGTVAIETSELISKMLTRKGVRHNILNAKNHAREADIIAEAGMKGAVTIATNMAGRGTDIKLGDDIKNIGLAVIGTERHESRRIDNQLRGRAGRQGDPGVTQFYLSMEDELMRRFGSDNMKAMMDRLGMDDSQPIESKMVSRAVESAQKRVEGNNYDARKQLLQYDDVLRQQREVIYKQRQEVMESENLRGIIEGMMKSTVERAVALHTQEEIEEDWNIKGLVDYLNTNLLQEGDVKEEELRRLAPEEMSEPIIAKLIERYNDKEKLMPEEQMREFEKVVVFRVVDTKWTEHIDAMDHLREGIHLRAYGQIDPLREYQMEGFAMFESMIASIEEEISRYIMKAEIEQNLERQEVVQGEAVHPSSDGEEAKKKPVVKGDQVGRNDLCKCGSGKKYKNCCGIGK | not soluble
MIFENRLALSAMAGVNNAEFCRKQKASLVILGGFNADRRALEAAEKAVKRGRKEFLFGIDGIEGEIKKLGRRKFAVNVRSSSLEGYLNVAELVAEFEGIIEINAHCRQPEFVEIGCGEWLLFNHERLVEIVSKTSRIAPTFVKIRGGHKLDYEKIARKLFDAGCLAIHVDAMIPGGGCDFSLIERISRIGNVIGNNSFVDIESGERIIMAGAKMASAARAVLRDENFFEKMLRSPLLSQPVELSCGRFRLEHHHHHH | soluble
MAHHHHHHVGTGSNDDDDKSPDPTQDVREPPALKYGIVLDAGSSHTSMFVYKWPADKENDTGIVGQHSSCDVQGGGISSYANDPSKAGQSLVRCLEQALRDVPRDRHASTPLYLGATAGMRLLNLTSPEATARVLEAVTQTLTQYPFDFRGARILSGQDEGVFGWVTANYLLENFIKYGWVGRWIRPRKGTLGAMDLGGASTQITFETTSPSEDPGNEVHLRLYGQHYRVYTHSFLCYGRDQILLRLLASALQIHRFHPCWPKGYSTQVLLQEVYQSPCTMGQRPRAFNGSAIVSLSGTSNATLCRDLVSRLFNISSCPFSQCSFNGVFQPPVAGNFIAFSAFYYTVDFLTTVMGLPVGTLKQLEEATEITCNQTWTELQARVPGQKTRLADYCAVAMFIHQLLSRGYHFDERSFREVVFQKKAADTAVGWALGYMLNLTNLIPADLPGLRKGTHF | soluble
MSLGAYLSEPLTTKDSSDESNEFLASGSSSMQGWRISQEDAHNCILNFDDQCSFFAVYDGHGGAEVAQYCSLHLPTFLKTVEAYGRKEFEKALKEAFLGFDATLLQEKVIEELKVLSGDSAGSDAEPGKDSGCTAVVALLHGKDLYVANAGDSRCVVCRNGKALEMSFDHKPEDTVEYQRIEKAGGRVTLDGRVNGGLNLSRAIGDHGYKMNKSLPAEEQMISALPDIEKITVGPEDEFMVLACDGIWNFMTSEQVVQFVQERINKPGMKLSKICEELFDHCLAPHTRGDGTGCDNMTAIIVQFKEGHHHHHH | soluble
MGSDKIHHHHHHEEPVGEFLPGQVESEENIEGIVTGAYAVLDGYYASDAINSGCSNWQFGDVVSDDAYKGGGGTGDQNQIHLMEIFNANPTGIDFEARWAALYEGIKRCNQAIRLLNGSEVKNKEQRLAEMRFLRGHYYFNLKIIYNQIPWIDETLVDPNEYNKKSNIEFSSDQLWEKILEEFSAAYKVLPESQADYGRPTKMAARAYMAKVYLYQSKWKECLEACDEVIQSGKYELFPDFRNVFLPENDNCSEIIFAIQLSINDGSPNNENGSYGDRLLPPGGPYPVYGFLRPTQNLVNAYKTDVKGLPYNDGKDVSENDYVDVRLDHTLARPNIPFMDVQLYDWTPREASVYGPYSPKKRLVSLNSTYYSPIWPYVNALNFYVIRYADLLLWRAEAAIETGDLETGRKYINMIRERAKNTQHVKTMDQSQDAANYKVGVYDEPFKSKNEAVQALRMERRLEMAHEGIRFFDLVRWGVADEVINAYIAKEKVFRSHLQNAHFVKGKHEYFPIPQSMIDICGTEVMKQNPGY | not soluble
MGCLSYMVLSGDEALVVDPLRFIDVYEQVAQQEGVTITHIVDSHLHADHLSGGKALAERTGAAYYLMKSEGAVFDFEPLEQHETIDFENVHLEVLAVKTPGHTPGSVSFFVNGKWLFSGDTIFVGGLGRPDLGGKVAEWAEDLYHTVYEKVAAMADDVIVLPAHYANLDEEINAEGYVGDTLGRIRARNEMMQNKAKDEFIDLVIQGLEHHHHHH | not soluble
SLRSLLTRRTIAIEGCCHGELDAIYSSLARLEEMHKMKVDLLICCGDFQFLACPPKYRDLRDFPAYFRGEKEAPCLTVFVGGNHEAPTVLRELYYGGWVAPKIFYLGHAGVVNVGGVRIAGLSGIFKSQDYRKGYFERPPYTEDTMRSAYHVREFEIAKLNRELTGRVDIVVTHDWPEGIYDFGDKTELIRQKPFLEKDIQAHELGNPHSMELLKKLKPAFWFAAHLHTRFAAVYVHPGPEGKATRFLALDKVLPRREFLQILEVEPLLPAGYVQQLSPGISRRSPTLCYDEEWLAILRANQQVLPVSRFPQKSCLVTKATADDLATVKKNLASLGLR | soluble
MYDAYTPCEVALRLPVEVTCLAFQESNQTLLAGGRAGHLYAYTISANRRGFELTNICKSFHKKAVMELKVCQREDLLLCVSDGQLMAHKLSDPEYKVETLIHKVKPVQTFARFSPKTSGDLYVIVSSRKKLYLFKWGEKDGHKEFIEVALDYNPVFLDTPTSIRCVGEMVFFSVRNEYFSMTMQKDKTTTSPSEGSTPEGWNGFVTRLLNFNCQPGIVPMIDRRRVAFVRNEIVVTTDIWGQRPANVLSDEYKFSEVPMQIVYDSPYLVGMLSKGRVEVRSIFDGQLVQTMSLPKAMTLCSGARGQVFVAALSDIWILDTSQNLRKNVSHLIQERHFELAIQLAENSNLFAEEQKLEIKKKAALNLFNQKKFDESFALFGEIKTDISEVLSIIRMFPELLPDGFQSMTGVVSDMPANDRMRALLALGSYLSEIRTEHAKHIELYNRLYSSGAAKKTDEDEKAKLLLTLRVVDTTLLKCYIKTKPMLVDSLIRLQSNACTFEDAKKILESEGRLRSLFILYETRKKHEMALDLFIDQSSRPDADPFFDDAIQQIVEYLQSLGNSNLPLILKYAKWVLAKNLEAGVQIFTSDETEMARNLNRKAVVEFLKSECPDALIPYLEHVIFKWEEPSSYFHETLLEFYVARVNTLFKDYVHAFPDDENITRAGDEDGELGLYRKRLLKFLEVSHSYSPQTVLLQLAPHAFYEERALILGRLKQHEQALAIYVNTLKNVPAAEEYCRLYYNAHDETNSQVYLMLFRTLVHPNQQQLHSIPYHADSTPFGSYRDDVSEASTLVNSTSSYQPDVNTAIKILAKHADKIDTVGALNMLPATTPLRVVFSAINAVIQTTGRQASTRKMEKSVSQCAMSKKLERKNKAQSTKIIVNFSSECVVCEKKIAVSAFVRYPDGRLAHLYCHNDSQGGNRN | not soluble
MMNTKVALKQLMATHFITVDVPCPECGGAMTAWKEPTPDTPPRCPPVCMECGYRSVKKKEATTAKNLYESSLIKKAKDYFLNGSVLTDRKSLHKKISNYYPSNQESTKAKNISMEFCEKTLLGEIHHLILTGGVGVGKSHLAIGCLNEILVKSNYSKKVLFVSYRELLEQLKFAMNDEEARKAITGVAMSEIKAADVVVLDDIGAELGDFNKRDEKGNLILSRASNFDIDTLTGILESRIDKPTIITSNLKSKEIKYCYGERIVSRMATHSNGFMHRFTNTKDYRLKTALEHHHHHH | soluble
MSLTNFVGSVLEATKEAIRALNPQNSTIYESLMVGAGGDVSLKADLMCEEILSARLRHFGHIHSEESGLIEGESQDIIYLDPLDGSTNLSSLIPYYGTSVALCDPEGRTKAAAVINFCSGETFIKTDAFALHGSIWQPIDTFVPIRPLEHASKIGIFEGSHRNAPWVLGLHQKGLKFRSPGAIALSMAYAHNVSFVLFDGEIREYDTKAGLFLCSDLHIHHDERALLISRDPIIFENLLELISQKGEGHHHHHH | soluble
MALTVAKSALEAIREKGLGGFMRMIREEGFMRCLPDGNLLQTKIHNIGATLVGVDKFGNKYYQKLGDTQYGRHRWVEYASKDRYNASQVPAEWHGWLHFITDHTGDELLSLKPKRYGLEHKENFSGEGDAYIYHSKGHTLNPGQKNWTRYQSWVPTKTQ | not soluble
MISNKRRPKIKIWNKEQMALYLKAIKKDRLYAAFVTDSKSGLRKSELLALRWSDIDFSTGLTKIERGWVRSPKGTLYLSDLKSENSERTLVFSTDLLKVLLEHKSRQDEEKKTAGKNYIDNGLVFCREDGSYINPSTFTRRHYDLTAKAKLPRISVHALRHSISTALLESGKVDLKQIQEMLGHKDISTTGNYYTDVLERMKQKTSELIDNLIQTELEHHHHHH | not soluble
MAHHHHHHMSSKKQDASAELLSELRAVIVSGGSMGTLDEQKVRSVVEKTNESYACIQSIATNPYADLTQPYYVSSVNYYRAKCLRDKRCLLTYLLWRQKQVAKAWWSVRDNLLEGSLSAAEAKYLSDYQGIMVEYMTSFDVPLDLRAYLWRPPSVRQLEVRGRCHYEFRSSVSGKTIIINIGDQLFLSFEEAEPLIQQGIVELVGH | not soluble
MALPESESARTEQALGRLVGSLCVVTAQQGELSSAMLASWVSQATFSPPGLTVAVAKERAIESLLHKNSCFVLNILQEGNHLGLMKHFLKPFAPGGDRFADVATETAENGAPILTESLAYLECRVQQRLECGDHWVLYAVTDRGALLKDGVTAVHHRKSGDHYLEHHHHHH | not soluble
MKAPELQIQQWFNSATDLTLADLRGKVIVIEAFQMLCPGCVMHGIPLAQKVRAAFPEDKVAVLGLHTVFEHHEAMTPISLKAFLHEYRIKFPVGVDQPGDGAMPRTMAAYQMRGTPSLLLIDKAGDLRAHHFGDVSELLLGAEIATLLGEAAPSVQKQAGTPQGDANCDNDGCTV | not soluble
PKDDRLSAWKFWALYAADTGGALRIDAGAVAAVTAGGNSLLAVGITEVIGDFHAGEIVEILGPEGEIIGRGEVAYDSAVLITMLGKQTAQLPEGLQRPVVHADYLSDYASRA | not soluble

From the DeepSol protein solubility set
